Reference: paper PMC11399441

Tests used:
[1] = western blot, YTS-1 cells; conditions: control: untreated YTS-1 cells
CHX chase, western blot = conditions: control: untreated YTS-1 cells
[2] = IP and anti-ubiquitin western blot; conditions: glycan lost; control: untreated YTS-1 cells

Q: What does the source list for “C1GalT1 (core1 β-1,3-galactosyltransferase, T-synthase): OSMI-1”?
A: expression_or_secretion ([1]; glycan lost): decreases; degradation_or_half_life (CHX chase, western blot; glycan lost): decreases; other: ubiquitination [2]: increases

Q: For “C1GalT1 (core1 β-1,3-galactosyltransferase, T-synthase): PugNAc”, which expression_or_secretion ([1]; glycan gained) is on record?
A: increases

Q: What about the degradation_or_half_life (CHX chase, western blot; glycan gained) of the same substance?
A: increases
